According to patent US20260242735A1:

How the values were obtained:
human CD33 V231A (human) = human CD33 V231A (human) (UniProt P20138); experiment: alanine scan, flow cytometry, HEK293-T
human CD33 V138A (human) = human CD33 V138A (human) (UniProt P20138); experiment: flow cytometry on HEK293-T, alanine scan
[1] = target: human CD33 variant Y49S (human) (UniProt P20138); experiment: flow cytometry, IgG on cells expressing the mutant
human CD33 C212A (human) [2] = target: human CD33 C212A (human) (UniProt P20138); experiment: alanine scan, flow cytometry
Chain of human CD33 C212A (human) (P20138 18-364 C212A limits assumed): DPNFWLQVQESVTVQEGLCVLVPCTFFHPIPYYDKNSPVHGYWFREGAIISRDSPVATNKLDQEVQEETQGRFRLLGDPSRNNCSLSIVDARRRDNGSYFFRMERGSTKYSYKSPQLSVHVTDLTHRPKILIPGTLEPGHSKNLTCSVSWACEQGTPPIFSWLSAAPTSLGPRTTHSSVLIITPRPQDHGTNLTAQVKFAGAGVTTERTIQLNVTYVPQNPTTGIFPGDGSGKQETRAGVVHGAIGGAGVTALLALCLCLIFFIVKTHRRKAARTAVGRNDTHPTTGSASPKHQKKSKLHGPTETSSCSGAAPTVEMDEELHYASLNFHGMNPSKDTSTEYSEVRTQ

human CD33 V25A (human) = human CD33 V25A (human) (UniProt P20138); experiment: flow cytometry, alanine scan
Chain of human CD33 V25A (human) (P20138 18-364 V25A limits assumed): as the sequence (P20138 18-364 C212A limits assumed) above, with V8A, A195C counted along it

human CD33 Q24A (human) = human CD33 Q24A (human) (UniProt P20138); experiment: flow cytometry, alanine scan
Chain of human CD33 Q24A (human) (P20138 18-364 Q24A limits assumed): as the sequence (P20138 18-364 C212A limits assumed) above, with Q7A, A195C counted along it

human CD33 Q26A (human) = human CD33 Q26A (human) (UniProt P20138); experiment: flow cytometry, alanine scan
Chain of human CD33 Q26A (human) (P20138 18-364 Q26A limits assumed): as the sequence (P20138 18-364 C212A limits assumed) above, with Q9A, A195C counted along it

human CD33 F44A (human) [3] = target: human CD33 F44A (human) (UniProt P20138); experiment: flow cytometry, alanine scan
Chain of human CD33 F44A (human) (P20138 18-364 F44A limits assumed): as the sequence (P20138 18-364 C212A limits assumed) above, with F27A, A195C counted along it

human CD33 L134A (human) = human CD33 L134A (human) (UniProt P20138); experiment: alanine scan, flow cytometry, HEK293-T
Chain of human CD33 L134A (human) (P20138 18-364 L134A limits assumed): as the sequence (P20138 18-364 C212A limits assumed) above, with L117A, A195C counted along it

human CD33 Y129A (human) [4] = target: human CD33 Y129A (human) (UniProt P20138); experiment: alanine scan, flow cytometry, HEK293-T
Chain of human CD33 Y129A (human) (P20138 18-364 Y129A limits assumed): as the sequence (P20138 18-364 C212A limits assumed) above, with Y112A, A195C counted along it

human CD33 L134R (human) = human CD33 L134R (human) (UniProt P20138); experiment: flow cytometry, transfected cells, IgG
Chain of human CD33 L134R (human) (P20138 18-364 L134R limits assumed): as the sequence (P20138 18-364 C212A limits assumed) above, with L117R, A195C counted along it

human CD33 K52F (human) = human CD33 K52F (human) (UniProt P20138); experiment: flow cytometry, transfected cells, IgG
Chain of human CD33 K52F (human) (P20138 18-364 K52F limits assumed): as the sequence (P20138 18-364 C212A limits assumed) above, with K35F, A195C counted along it

human CD33 C41A (human) = human CD33 C41A (human) (UniProt P20138); experiment: alanine scan, flow cytometry
Chain of human CD33 C41A (human) (P20138 18-364 C41A limits assumed): as the sequence (P20138 18-364 C212A limits assumed) above, with C24A, A195C counted along it

human CD33 C212A (human) [5] = target: human CD33 C212A (human) (UniProt P20138); experiment: alanine scan, flow cytometry, HEK293-T
[6] = target: human CD33 extracellular region F21L (human) (UniProt P20138); experiment: BLI Octet, IgG captured on AHC, CD33 analyte
Chain of human CD33 extracellular region F21L (human) (P20138 other isoform, or with tags, fused parts or gaps F21L F21L): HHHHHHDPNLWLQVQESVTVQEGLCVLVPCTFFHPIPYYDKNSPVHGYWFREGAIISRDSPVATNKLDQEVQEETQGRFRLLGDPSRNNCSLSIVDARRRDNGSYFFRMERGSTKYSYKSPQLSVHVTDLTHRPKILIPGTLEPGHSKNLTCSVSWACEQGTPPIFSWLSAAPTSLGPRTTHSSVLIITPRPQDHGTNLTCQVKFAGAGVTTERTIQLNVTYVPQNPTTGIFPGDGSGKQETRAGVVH

human CD33 F44A (human) [7] = target: human CD33 F44A (human) (UniProt P20138); experiment: alanine scan, flow cytometry
human CD33 Y129A (human) [8] = target: human CD33 Y129A (human) (UniProt P20138); experiment: flow cytometry on HEK293-T, alanine scan
human CD33 C101A (human) = human CD33 C101A (human) (UniProt P20138); experiment: flow cytometry on HEK293-T, alanine scan
Chain of human CD33 C101A (human) (P20138 18-364 C101A limits assumed): as the sequence (P20138 18-364 C212A limits assumed) above, with C84A, A195C counted along it

human CD33 M120A (human) = human CD33 M120A (human) (UniProt P20138); experiment: flow cytometry on HEK293-T, alanine scan
Chain of human CD33 M120A (human) (P20138 18-364 M120A limits assumed): as the sequence (P20138 18-364 C212A limits assumed) above, with M103A, A195C counted along it

[9] = target: human CD33 variant Y129S (human) (UniProt P20138); experiment: flow cytometry, IgG on cells expressing the mutant
Chain of human CD33 variant Y129S (human) (P20138 18-364 Y129S limits assumed): as the sequence (P20138 18-364 C212A limits assumed) above, with Y112S, A195C counted along it

Chain of human CD33 V231A (human) (P20138 18-364 V231A limits assumed): as the sequence (P20138 18-364 C212A limits assumed) above, with A195C, V214A counted along it
Chain of human CD33 V138A (human) (P20138 18-364 V138A limits assumed): as the sequence (P20138 18-364 C212A limits assumed) above, with V121A, A195C counted along it
Chain of human CD33 variant Y49S (human) (P20138 18-364 Y49S limits assumed): as the sequence (P20138 18-364 C212A limits assumed) above, with Y32S, A195C counted along it

B1: Refmab #4 (antibody, human IgG1, V domains shown)
VH: QVQLVQSGAEVKKPGESVKVSCKASGYTFTNYGMNWVKQAPGQGLEWMGWINTYTGEPTYADKFQGRVTMTTDTSTSTAYMEIRNLGGDDTAVYYCARWSWSDGYYVYFDYWGQGTSVTVSS
VL: DIVMTQSPDSLTVSLGERTTINCKSSQSVLDSSTNKNSLAWYQQKPGQPPKLLLSWASTRESGIPDRFSGSGSGTDFTLTIDSPQPEDSATYYCQQSAHFPITFGQGTRLEIK
Mean % WT Binding (human CD33 V231A (human)): 79.3%
Mean % WT Binding (human CD33 V138A (human)): 54.1 % WT binding
Mean % WT Binding [1]: 9.8 % of WT

B2: Refmab #6 (antibody, human IgG1, V domains shown)
VH: QVQLQQPGAEVVKPGASVKMSCKASGYTFTSYYIHWIKQTPGQGLEWVGVIYPGNDDISYNQKFQGKATLTADKSSTTAYMQLSSLTSEDSAVYYCAREVRLRYFDVWGQGTTVTVSS
VL: EIVLTQSPGSLAVSPGERVTMSCKSSQSVFFSSSQKNYLAWYQQIPGQSPRLLIYWASTRESGVPDRFTGSGSGTDFTLTISSVQPEDLAIYYCHQYLSSRTFGQGTKLEIK
Mean % WT Binding (human CD33 C212A (human) [2]): 16.2 % WT binding
Mean % WT Binding (human CD33 V25A (human)): 16.7 % of WT
Mean % WT Binding (human CD33 Q24A (human)): 18.1 % of WT
Mean % WT Binding (human CD33 Q26A (human)): 76.1 % of WT
Mean % WT Binding (human CD33 F44A (human) [3]): 14 % of WT
Mean % WT Binding (human CD33 L134A (human)): 19.5 % WT binding
Mean % WT Binding (human CD33 Y129A (human) [4]): 76.7 % WT binding
Mean % WT Binding (human CD33 L134R (human)): 1%
Mean % WT Binding (human CD33 K52F (human)): 2.5%

B3: Refmab #1 (antibody, human IgG1, V domains shown)
VH: EVQLVQSGAEVKKPGSSVKVSCKASGYTITDSNIHWVRQAPGQSLEWIGYIYPYNGGTDYNQKFKNRATLTVDNPTNTAYMELSSLRSEDTAFYYCVNGNPWLAYWGQGTLVTVSS
VL: DIQLTQSPSTLSASVGDRVTITCRASESLDNYGIRFLTWFQQKPGKAPKLLMYAASNQGSGVPSRFSGSGSGTEFTLTISSLQPDDFATYYCQQTKEVPWSFGQGTKVEVK
Mean % WT Binding (human CD33 C41A (human)): 14 % WT
Mean % WT Binding (human CD33 C212A (human) [5]): 17.2%
% WT binding [6]: 1.52%

B4: Refmab #5 (antibody, human IgG1, V domains shown)
VH: QVQLVQSGAEVKKPGASVKVSCKASGYTFTNYDINWVRQAPGQGLEWIGWIYPGDGSTKYNEKFKAKATLTADTSTSTAYMELRSLRSDDTAVYYCASGYEDAMDYWGQGTTVTVSS
VL: DIQMTQSPSSLSASVGDRVTINCKASQDINSYLSWFQQKPGKAPKTLIYRANRLVDGVPSRFSGSGSGQDYTLTISSLQPEDFATYYCLQYDEFPLTFGGGTKVEIK
Mean % WT Binding (human CD33 L134R (human)): 5%
Mean % WT Binding (human CD33 K52F (human)): 2.5%

B5: Refmab #3 (antibody, human IgG1, V domains shown)
VH: QVQLVQSGAEVKKPGSSVKVSCKASGYTFTDYNMHWVRQAPGQGLEWIGYIYPYNGGTGYNQKFKSKATITADESTNTAYMELSSLRSEDTAVYYCARGRPAMDYWGQGTLVTVSS
VL: DIQMTQSPSSLSASVGDRVTITCRASESVDNYGISFMNWFQQKPGKAPKLLIYAASNQGSGVPSRFSGSGSGTDFTLTISSLQPDDFATYYCQQSKEVPWTFGQGTKVEIK
Mean % WT Binding (human CD33 F44A (human) [7]): 18.9 % WT
Mean % WT Binding (human CD33 Y129A (human) [8]): 15.6 % WT binding
Mean % WT Binding (human CD33 C101A (human)): 13.6 % WT binding
Mean % WT Binding (human CD33 M120A (human)): 15.7 % WT binding
Mean % WT Binding [9]: 7.6 % of WT
